Assay [1] addresses T1, recombinant monomeric SARS-CoV-2 S1 protein, his-tagged (SARS-CoV-2, UniProt P0DTC2 16-681).
T1 construct: domain: S1
The assay can be described thus: flow cytometry, blocking of binding to hACE-2 cells.

Assay [2] has as its target T2, SARS-CoV spike RBD (R306-F527), C-terminal 6-His (SARS-CoV, UniProt P59594 306-527). The assay can be described thus: antigen-down ELISA, coated SARS-CoV-1 S1 RBD titrated, Ab 1 µg/mL.
Assay [3] deals with T2, SARS-CoV spike RBD (R306-F527), …. The assay can be described thus: flow cytometry, blocking of binding to hACE-2 cells.
The target in assay [4] is T3, recombinant monomeric SARS-CoV-1 S1 protein (SARS-CoV-1, UniProt P59594 14-667). The assay is described as above.
The target in assay [5] is T4, recombinant his-tagged homotrimeric SARS-CoV-2 spike protein (SARS-CoV-2, UniProt P0DTC2 16-1211). The assay is described as above.
Assay [6] has as its target T1, recombinant monomeric SARS-CoV-2 S1 …. The description is as above. This is another data set of the same source.
Assay [7] has as its target T4, recombinant his-tagged homotrimeric …. The assay is described as above. This is another data set of the same source.
A further assay concerns the target T5, BSA (bovine, UniProt P02769).
T5 construct: also called bovine serum albumin
The assay can be described thus: dipstick, adsorbed protein spots, Ab 10 µg/mL, GAM-AuNP.

For assay [8], the target named is T3, recombinant monomeric SARS-CoV-1 S1 …. Description: antigen-down ELISA, coated SARS-CoV-1 S1 titrated, Ab 1 µg/mL.
The target in assay [9] is T2, SARS-CoV spike RBD (R306-F527), …. Description: flow cytometry, blocking of binding to hACE-2 cells. This is another data set of the same source.
Assay [10] concerns the target T3, recombinant monomeric SARS-CoV-1 S1 …. The description is as above. This is another data set of the same source.

Consider one molecule from patent publication US20230408517A1 (BIO TECHNE, published 2023).

Read-outs that look alike come from different tables or passages of the source.

T5 sequence (P02769 25-607 limits assumed): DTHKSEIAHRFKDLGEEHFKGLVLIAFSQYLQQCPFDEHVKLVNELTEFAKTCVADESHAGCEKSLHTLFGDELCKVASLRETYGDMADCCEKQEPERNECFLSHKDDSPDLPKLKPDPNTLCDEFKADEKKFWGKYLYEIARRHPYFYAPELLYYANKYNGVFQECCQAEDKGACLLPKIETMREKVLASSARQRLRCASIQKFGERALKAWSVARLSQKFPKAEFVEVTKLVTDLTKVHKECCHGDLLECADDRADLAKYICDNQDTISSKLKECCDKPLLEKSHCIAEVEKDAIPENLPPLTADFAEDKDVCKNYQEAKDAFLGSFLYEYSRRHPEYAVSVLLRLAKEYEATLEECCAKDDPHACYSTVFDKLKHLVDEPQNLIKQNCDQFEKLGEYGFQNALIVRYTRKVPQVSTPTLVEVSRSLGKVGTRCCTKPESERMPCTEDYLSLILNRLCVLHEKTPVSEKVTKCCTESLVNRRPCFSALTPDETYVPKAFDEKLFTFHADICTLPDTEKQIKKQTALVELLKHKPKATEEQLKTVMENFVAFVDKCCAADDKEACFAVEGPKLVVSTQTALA

B1: 1035762 (antibody, V domains shown)
VH: EVQLQQSGPELVKPGASVKISCKTSGYTFTEYTMHWVKQSHGKSLEWIGGINPNNGDTGYNQKFKGKATLTVDKSSSTAYMELRSLTFEDSAVYYCARDGYPLYYAMDYWGQGTSVTVSS
VL: DIQMTQSPSSLSASLGERVSLTCRASQEISGYLCWLQQKPDGTIKRLIYAASTLDSAVPKRFSGSRSGSDYSLTISSLESEDFADFYCLQYASYPWTFGGGTKLEIK
In the case of B1, the percent blocking was 93.2% in [1]; 0% in [3]; 0% in assay [4]; 93% in assay [5]; 93.2% in assay [6]; 93% in assay [7]. In addition, the percent blocking in [9] and in [10] was 0% each time. For the same molecule, the binding result in assay [2] was “no binding (tested: 400 ng coated (axis))”; with BSA, “no binding (tested: 10 µg/mL)”; in assay [8], “no binding (tested: 400 ng coated (axis))”.
